Literature values in paper PMC7424061.
pKd: −log10 of the molar value.

Biological target: p53 TAD (Homo sapiens) (UniProt P04637)
Sequence (P04637 1-61): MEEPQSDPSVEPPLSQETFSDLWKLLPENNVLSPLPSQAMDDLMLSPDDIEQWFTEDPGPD

azurin, sequence (P00282 21-148): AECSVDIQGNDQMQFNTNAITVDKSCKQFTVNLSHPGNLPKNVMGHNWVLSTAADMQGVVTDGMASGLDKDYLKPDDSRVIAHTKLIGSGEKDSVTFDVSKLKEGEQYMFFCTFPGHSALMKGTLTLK

Substance: azurin (from UniProt P00282)
- pKd: 5.15
